Experimental data as given in paper PMC3683571 (2013).
Where no end group is shown, it is not given here.

Target: PSMA (Homo sapiens, UniProt Q04609)
Test: electrochemical impedance spectroscopy

B1: phage-2 (phage-displayed peptide 2) (peptide)
chain: SECVEVFQNSCDW
modifications: cysteine pairing not given here; also: displayed on M13 phage
B1 gave a Kd of 54 nM.
